US20160031968A1 (Bayer, published 2016)

Assays:
[1] = system: T1, Var97, a variant of D519VE665V-FVIII with the additional amino acid substitutions I371P, V374F, V559L, R562W and Q565E
T1 sequence: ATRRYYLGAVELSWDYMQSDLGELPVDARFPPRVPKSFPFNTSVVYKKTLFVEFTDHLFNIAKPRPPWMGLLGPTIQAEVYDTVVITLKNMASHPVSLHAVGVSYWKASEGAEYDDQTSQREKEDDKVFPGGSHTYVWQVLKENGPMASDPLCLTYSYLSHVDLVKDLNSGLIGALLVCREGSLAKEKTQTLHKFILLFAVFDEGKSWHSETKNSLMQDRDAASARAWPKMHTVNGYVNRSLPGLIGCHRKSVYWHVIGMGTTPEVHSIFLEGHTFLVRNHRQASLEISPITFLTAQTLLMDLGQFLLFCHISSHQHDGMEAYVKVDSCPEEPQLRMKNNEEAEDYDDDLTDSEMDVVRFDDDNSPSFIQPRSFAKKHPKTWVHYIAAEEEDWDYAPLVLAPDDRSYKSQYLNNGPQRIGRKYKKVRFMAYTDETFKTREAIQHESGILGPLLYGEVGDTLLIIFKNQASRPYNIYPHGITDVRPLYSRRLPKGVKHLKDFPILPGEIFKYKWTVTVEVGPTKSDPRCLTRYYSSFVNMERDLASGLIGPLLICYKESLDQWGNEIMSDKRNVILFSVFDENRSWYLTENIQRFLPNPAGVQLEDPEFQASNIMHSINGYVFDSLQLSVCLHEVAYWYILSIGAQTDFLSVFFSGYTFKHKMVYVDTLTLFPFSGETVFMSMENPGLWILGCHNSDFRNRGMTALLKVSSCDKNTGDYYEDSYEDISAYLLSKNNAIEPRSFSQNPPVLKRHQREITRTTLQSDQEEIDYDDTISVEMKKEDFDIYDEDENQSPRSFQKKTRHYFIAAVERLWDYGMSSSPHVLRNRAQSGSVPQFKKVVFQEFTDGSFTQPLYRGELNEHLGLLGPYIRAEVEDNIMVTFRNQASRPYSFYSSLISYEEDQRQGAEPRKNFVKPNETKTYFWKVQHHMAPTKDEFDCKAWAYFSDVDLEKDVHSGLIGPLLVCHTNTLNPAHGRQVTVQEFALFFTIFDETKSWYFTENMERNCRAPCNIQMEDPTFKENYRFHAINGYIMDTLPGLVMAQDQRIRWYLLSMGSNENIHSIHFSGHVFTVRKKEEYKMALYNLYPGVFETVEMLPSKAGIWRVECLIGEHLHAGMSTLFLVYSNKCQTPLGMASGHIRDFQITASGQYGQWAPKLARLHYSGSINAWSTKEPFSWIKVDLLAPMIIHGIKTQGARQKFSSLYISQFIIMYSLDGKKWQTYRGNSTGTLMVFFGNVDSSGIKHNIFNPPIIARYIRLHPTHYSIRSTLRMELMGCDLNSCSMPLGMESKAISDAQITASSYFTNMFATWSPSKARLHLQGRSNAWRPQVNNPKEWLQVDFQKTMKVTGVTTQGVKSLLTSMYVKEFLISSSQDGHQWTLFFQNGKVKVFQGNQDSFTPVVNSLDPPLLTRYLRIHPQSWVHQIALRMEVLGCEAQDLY

Var97-R336I = system: T2, Var97-R336I
T2 sequence: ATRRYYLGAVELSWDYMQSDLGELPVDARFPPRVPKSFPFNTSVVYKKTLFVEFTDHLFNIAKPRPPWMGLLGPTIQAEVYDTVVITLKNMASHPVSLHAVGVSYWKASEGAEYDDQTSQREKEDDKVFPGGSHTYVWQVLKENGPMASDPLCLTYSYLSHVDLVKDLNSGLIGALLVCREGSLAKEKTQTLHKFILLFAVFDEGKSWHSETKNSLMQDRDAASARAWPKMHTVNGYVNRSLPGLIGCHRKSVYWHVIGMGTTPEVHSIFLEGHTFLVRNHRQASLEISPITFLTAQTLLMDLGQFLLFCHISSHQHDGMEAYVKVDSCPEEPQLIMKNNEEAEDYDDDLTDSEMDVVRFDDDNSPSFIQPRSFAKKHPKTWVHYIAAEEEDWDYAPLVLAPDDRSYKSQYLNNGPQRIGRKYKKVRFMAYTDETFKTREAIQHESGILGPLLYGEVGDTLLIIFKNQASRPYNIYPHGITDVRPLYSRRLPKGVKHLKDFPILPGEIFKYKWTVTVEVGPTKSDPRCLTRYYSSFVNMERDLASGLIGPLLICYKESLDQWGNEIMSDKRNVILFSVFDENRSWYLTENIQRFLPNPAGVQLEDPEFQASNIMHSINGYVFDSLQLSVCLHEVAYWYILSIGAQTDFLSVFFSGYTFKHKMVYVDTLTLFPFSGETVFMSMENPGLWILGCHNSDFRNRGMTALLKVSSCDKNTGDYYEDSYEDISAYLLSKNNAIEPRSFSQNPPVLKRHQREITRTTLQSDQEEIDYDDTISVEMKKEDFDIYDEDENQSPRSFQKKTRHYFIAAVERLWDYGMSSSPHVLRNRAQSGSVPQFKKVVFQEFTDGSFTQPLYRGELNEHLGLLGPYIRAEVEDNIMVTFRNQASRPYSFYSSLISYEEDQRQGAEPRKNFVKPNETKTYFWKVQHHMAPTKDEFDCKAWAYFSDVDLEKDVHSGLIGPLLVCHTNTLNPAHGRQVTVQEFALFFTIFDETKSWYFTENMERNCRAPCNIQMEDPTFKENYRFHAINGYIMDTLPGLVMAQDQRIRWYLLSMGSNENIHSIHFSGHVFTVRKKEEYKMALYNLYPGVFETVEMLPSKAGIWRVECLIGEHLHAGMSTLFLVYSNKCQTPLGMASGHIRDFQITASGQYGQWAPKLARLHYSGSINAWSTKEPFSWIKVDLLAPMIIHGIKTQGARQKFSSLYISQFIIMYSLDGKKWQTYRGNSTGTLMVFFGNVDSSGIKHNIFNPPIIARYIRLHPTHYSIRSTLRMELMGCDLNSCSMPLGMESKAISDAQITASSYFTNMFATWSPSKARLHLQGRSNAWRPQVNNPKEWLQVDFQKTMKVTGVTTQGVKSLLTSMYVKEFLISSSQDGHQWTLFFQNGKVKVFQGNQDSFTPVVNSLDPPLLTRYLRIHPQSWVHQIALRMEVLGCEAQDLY

[2] = molecular target: T3, Factor IXa (activated Coagulation Factor IX) (human, UniProt P00740 47-191; P00740 227-461, limits assumed); test: FXase kinetic assay: thrombin-activated FVIII fixed at 10 pM, FIXa varied 0-10 nM, FXa generation read with S-2765 (functional affinity)
T3 construct: also called FIXa
T3 sequence (P00740 47-191 limits assumed, form in doubt, chain 1 of 2): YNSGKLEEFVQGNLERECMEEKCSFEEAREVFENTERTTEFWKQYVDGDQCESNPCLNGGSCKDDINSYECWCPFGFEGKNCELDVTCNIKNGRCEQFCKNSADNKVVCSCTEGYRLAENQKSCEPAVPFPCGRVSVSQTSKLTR
T3 sequence (P00740 227-461 limits assumed, form in doubt, chain 2 of 2): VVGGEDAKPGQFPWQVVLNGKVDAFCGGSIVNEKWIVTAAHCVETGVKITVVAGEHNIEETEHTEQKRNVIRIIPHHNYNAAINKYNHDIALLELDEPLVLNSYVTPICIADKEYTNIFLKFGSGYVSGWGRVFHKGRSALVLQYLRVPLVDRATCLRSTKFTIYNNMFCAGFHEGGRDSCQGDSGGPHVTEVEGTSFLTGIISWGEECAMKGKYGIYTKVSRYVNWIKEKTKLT
Procedure: The function of the Var97 variant in its physiologic enzyme complex was examined using FXase kinetic assays. These FXase kinetic assays were performed in 10 mM HEPES pH 7.4, 150 mM NaCl, 5 mM CaCl2, 0.01% Tween 20, 0.01% BSA and 10 μM PL (40:40:20, v/v/v PS:PC:PE). In these FXase kinetic assays, purified FVIIIa proteins were generated by incubation with 20 nM thrombin. The FVIII level was held fixed at 10 pM and reacted with varying concentrations of FIXa (0-10 nM), or the FIXa level was held fixed at (100 pM) and the level of thrombin activated FVIIIa was varied (0-10 nM). FX (150 nM) was added to either types of reactions, and after 1 min., the FXase reactions were stopped by addition to EDTA. The amount of FXa generated in these reactions were measured using the S-2765 chromogenic substrate. FXa generation was then extrapolated from a standard curve relating FXa level to rates of chromogenic substrate cleavage. The data was fit to a standard Michaelis-Menten equation to derive kinetic constants.

Molecule: Factor IXa (activated Coagulation Factor IX)
- proteolytic cleavage of FVIII by excess FIXa in a FXase reaction (SDS-PAGE, Coomassie Blue) [1]: the Var97 Factor VIII variant shows enhanced proteolytic cleavage by FIXa relative to one or both of BDD and D519VE665V variant FVIII
- proteolytic cleavage in the FIXa digestion assay (SDS-PAGE) (Var97-R336I): proteolytic cleavage of Var97-R336I was markedly reduced as compared to Var97

B1: Var97, a variant of D519VE665V-FVIII with the additional amino acid substitutions I371P, V374F, V559L, R562W and Q565E (other)
chain: ATRRYYLGAVELSWDYMQSDLGELPVDARFPPRVPKSFPFNTSVVYKKTLFVEFTDHLFNIAKPRPPWMGLLGPTIQAEVYDTVVITLKNMASHPVSLHAVGVSYWKASEGAEYDDQTSQREKEDDKVFPGGSHTYVWQVLKENGPMASDPLCLTYSYLSHVDLVKDLNSGLIGALLVCREGSLAKEKTQTLHKFILLFAVFDEGKSWHSETKNSLMQDRDAASARAWPKMHTVNGYVNRSLPGLIGCHRKSVYWHVIGMGTTPEVHSIFLEGHTFLVRNHRQASLEISPITFLTAQTLLMDLGQFLLFCHISSHQHDGMEAYVKVDSCPEEPQLRMKNNEEAEDYDDDLTDSEMDVVRFDDDNSPSFIQPRSFAKKHPKTWVHYIAAEEEDWDYAPLVLAPDDRSYKSQYLNNGPQRIGRKYKKVRFMAYTDETFKTREAIQHESGILGPLLYGEVGDTLLIIFKNQASRPYNIYPHGITDVRPLYSRRLPKGVKHLKDFPILPGEIFKYKWTVTVEVGPTKSDPRCLTRYYSSFVNMERDLASGLIGPLLICYKESLDQWGNEIMSDKRNVILFSVFDENRSWYLTENIQRFLPNPAGVQLEDPEFQASNIMHSINGYVFDSLQLSVCLHEVAYWYILSIGAQTDFLSVFFSGYTFKHKMVYVDTLTLFPFSGETVFMSMENPGLWILGCHNSDFRNRGMTALLKVSSCDKNTGDYYEDSYEDISAYLLSKNNAIEPRSFSQNPPVLKRHQREITRTTLQSDQEEIDYDDTISVEMKKEDFDIYDEDENQSPRSFQKKTRHYFIAAVERLWDYGMSSSPHVLRNRAQSGSVPQFKKVVFQEFTDGSFTQPLYRGELNEHLGLLGPYIRAEVEDNIMVTFRNQASRPYSFYSSLISYEEDQRQGAEPRKNFVKPNETKTYFWKVQHHMAPTKDEFDCKAWAYFSDVDLEKDVHSGLIGPLLVCHTNTLNPAHGRQVTVQEFALFFTIFDETKSWYFTENMERNCRAPCNIQMEDPTFKENYRFHAINGYIMDTLPGLVMAQDQRIRWYLLSMGSNENIHSIHFSGHVFTVRKKEEYKMALYNLYPGVFETVEMLPSKAGIWRVECLIGEHLHAGMSTLFLVYSNKCQTPLGMASGHIRDFQITASGQYGQWAPKLARLHYSGSINAWSTKEPFSWIKVDLLAPMIIHGIKTQGARQKFSSLYISQFIIMYSLDGKKWQTYRGNSTGTLMVFFGNVDSSGIKHNIFNPPIIARYIRLHPTHYSIRSTLRMELMGCDLNSCSMPLGMESKAISDAQITASSYFTNMFATWSPSKARLHLQGRSNAWRPQVNNPKEWLQVDFQKTMKVTGVTTQGVKSLLTSMYVKEFLISSSQDGHQWTLFFQNGKVKVFQGNQDSFTPVVNSLDPPLLTRYLRIHPQSWVHQIALRMEVLGCEAQDLY
notes: Purified from HKB11 cells; also called Var97 variant; Var97 Factor VIII variant
- fold binding affinity for FIXa over FVIII-BDD [2]: ≥ 4 fold
